Measurements reported in paper PMC11439917 (Nature Communications, 2024).

Biological target: human full-length LRRK2 (leucine-rich repeat kinase 2), purified (human, UniProt Q5S007 1-2527)
Assay: cryo-EM structure

Sequence of human full-length LRRK2 (leucine-rich repeat kinase 2), purified (Q5S007 whole entry): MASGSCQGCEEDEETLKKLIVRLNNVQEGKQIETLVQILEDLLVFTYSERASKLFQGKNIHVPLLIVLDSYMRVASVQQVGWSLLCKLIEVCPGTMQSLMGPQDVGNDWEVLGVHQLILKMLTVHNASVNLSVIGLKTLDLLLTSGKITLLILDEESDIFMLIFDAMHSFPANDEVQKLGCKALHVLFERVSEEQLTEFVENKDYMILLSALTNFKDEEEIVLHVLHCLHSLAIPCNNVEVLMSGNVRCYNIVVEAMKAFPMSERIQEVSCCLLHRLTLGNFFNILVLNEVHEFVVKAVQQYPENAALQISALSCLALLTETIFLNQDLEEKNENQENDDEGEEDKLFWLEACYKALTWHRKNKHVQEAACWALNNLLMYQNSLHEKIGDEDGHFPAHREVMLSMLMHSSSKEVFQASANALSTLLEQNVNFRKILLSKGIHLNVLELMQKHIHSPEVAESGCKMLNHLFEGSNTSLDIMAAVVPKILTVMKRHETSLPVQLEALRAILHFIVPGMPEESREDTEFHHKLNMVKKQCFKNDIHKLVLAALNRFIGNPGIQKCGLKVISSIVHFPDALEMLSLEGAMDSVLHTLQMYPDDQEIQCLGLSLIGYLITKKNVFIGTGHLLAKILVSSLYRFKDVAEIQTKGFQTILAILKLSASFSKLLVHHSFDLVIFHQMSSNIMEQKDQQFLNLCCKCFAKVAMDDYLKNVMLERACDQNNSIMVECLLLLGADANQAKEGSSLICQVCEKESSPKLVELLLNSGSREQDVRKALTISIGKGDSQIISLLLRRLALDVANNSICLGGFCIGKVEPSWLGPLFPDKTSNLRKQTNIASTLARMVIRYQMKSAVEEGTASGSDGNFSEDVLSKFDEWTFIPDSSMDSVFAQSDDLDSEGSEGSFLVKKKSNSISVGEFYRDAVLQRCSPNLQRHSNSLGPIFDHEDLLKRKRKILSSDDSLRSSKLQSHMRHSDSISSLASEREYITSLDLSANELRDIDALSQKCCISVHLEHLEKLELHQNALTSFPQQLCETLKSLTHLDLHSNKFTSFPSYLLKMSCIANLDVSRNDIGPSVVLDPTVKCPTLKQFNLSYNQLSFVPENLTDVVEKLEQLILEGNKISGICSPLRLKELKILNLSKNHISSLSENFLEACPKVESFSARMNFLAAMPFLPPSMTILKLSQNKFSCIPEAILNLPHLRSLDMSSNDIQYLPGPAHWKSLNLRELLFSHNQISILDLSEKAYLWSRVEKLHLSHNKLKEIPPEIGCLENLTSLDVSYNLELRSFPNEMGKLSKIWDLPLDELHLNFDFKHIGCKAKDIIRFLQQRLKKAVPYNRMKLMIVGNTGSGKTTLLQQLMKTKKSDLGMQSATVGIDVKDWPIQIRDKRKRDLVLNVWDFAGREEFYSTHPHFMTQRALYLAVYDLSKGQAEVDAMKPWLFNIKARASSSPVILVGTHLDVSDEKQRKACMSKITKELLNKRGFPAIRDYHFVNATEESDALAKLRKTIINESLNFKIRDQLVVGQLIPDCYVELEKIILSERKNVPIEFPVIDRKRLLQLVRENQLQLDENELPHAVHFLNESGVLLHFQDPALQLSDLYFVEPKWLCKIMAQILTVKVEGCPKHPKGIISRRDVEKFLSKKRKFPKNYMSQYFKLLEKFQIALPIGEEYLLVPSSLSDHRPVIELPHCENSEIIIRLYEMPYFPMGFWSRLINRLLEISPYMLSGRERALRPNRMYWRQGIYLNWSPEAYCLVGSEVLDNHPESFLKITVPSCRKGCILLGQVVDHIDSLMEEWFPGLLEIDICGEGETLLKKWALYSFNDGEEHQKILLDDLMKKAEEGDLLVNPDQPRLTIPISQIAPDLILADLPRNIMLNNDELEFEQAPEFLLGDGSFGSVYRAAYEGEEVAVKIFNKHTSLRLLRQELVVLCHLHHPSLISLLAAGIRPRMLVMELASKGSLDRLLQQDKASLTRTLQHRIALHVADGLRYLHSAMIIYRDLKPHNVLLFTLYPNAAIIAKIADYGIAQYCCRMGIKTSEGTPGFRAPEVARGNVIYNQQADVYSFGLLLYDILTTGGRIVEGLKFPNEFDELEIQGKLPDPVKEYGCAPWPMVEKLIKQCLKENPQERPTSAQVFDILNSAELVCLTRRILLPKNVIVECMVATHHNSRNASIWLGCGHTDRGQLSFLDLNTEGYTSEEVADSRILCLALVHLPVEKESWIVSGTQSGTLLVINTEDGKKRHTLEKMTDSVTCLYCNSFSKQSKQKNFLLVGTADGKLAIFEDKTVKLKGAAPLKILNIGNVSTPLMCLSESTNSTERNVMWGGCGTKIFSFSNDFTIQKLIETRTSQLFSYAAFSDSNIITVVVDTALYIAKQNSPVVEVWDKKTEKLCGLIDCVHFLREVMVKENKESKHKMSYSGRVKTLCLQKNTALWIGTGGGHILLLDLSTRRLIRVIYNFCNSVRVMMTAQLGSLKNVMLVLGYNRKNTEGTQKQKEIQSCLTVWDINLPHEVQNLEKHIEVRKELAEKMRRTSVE

binding result: binds
B1: human RAB12 (residues 36-211) Q101L, GppNHp-bound (domain or fragment)
chain: PRPADFKLQVIIIGSRGVGKTSLMERFTDDTFCEACKSTVGVDFKIKTVELRGKKIRLQIWDTAGLERFNSITSAYYRSAKGIILVYDITKKETFDDLPKWMKMIDKYASEDAELLLVGNKLDCETDREITRQQGEKFAQQITGMRFCEASAKDNFNVDEIFLKLVDDILKKMPLD
